These results are taken from patent publication US20070244048A1 (published 2007).

Like-named read-outs stand apart in the source and are kept apart here. Non-standard residues stand in square brackets, D forms with d. No end group written: not given here.

In assay [1] the target is T1, human NMUR1 (human, UniProt Q9HB89 1-426).
T1 sequence (looked up): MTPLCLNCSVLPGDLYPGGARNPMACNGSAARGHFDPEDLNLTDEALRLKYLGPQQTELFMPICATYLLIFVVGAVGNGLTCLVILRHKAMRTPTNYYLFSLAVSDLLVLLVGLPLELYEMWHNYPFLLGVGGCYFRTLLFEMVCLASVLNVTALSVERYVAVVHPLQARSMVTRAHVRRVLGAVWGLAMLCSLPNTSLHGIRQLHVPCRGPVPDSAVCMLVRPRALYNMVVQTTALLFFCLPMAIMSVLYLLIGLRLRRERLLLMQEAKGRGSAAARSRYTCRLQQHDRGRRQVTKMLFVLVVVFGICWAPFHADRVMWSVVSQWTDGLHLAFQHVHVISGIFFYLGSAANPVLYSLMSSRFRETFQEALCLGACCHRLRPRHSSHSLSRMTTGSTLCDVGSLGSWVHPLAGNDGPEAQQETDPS
The experiment in a line: cell-based or functional assay.

For assay [2], the target named is T2, human NMUR2 (human, UniProt Q9GZQ4 1-415). As to the kind of experiment: cell-based or functional assay.
T2 sequence (Q9GZQ4 whole entry): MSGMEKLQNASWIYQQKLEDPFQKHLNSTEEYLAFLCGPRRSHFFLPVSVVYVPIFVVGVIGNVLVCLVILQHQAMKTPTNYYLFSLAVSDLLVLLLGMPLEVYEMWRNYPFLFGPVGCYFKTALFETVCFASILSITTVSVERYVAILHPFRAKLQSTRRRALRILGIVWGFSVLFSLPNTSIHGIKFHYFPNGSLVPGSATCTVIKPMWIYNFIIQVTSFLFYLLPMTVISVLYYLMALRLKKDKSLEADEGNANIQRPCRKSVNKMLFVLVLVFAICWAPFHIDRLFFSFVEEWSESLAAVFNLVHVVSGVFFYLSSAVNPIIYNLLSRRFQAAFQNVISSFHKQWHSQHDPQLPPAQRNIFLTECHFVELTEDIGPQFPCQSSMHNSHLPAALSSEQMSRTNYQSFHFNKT
In assay [3] the target is T3, mouse NMUR1-ATG (mouse, UniProt O55040 1-428).
T3 sequence (looked up): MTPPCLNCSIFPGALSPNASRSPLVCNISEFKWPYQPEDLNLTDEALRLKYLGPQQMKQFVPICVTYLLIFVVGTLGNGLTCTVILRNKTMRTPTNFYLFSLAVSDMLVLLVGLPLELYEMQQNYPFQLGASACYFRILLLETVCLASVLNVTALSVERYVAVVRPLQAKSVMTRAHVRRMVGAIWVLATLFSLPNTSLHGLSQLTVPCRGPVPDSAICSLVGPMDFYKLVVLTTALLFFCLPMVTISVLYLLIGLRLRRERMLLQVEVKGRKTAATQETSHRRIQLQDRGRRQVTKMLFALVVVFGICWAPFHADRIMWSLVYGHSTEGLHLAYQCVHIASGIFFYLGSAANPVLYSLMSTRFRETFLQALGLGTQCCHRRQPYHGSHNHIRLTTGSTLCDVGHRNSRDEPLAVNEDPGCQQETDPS
The experiment in a line: cell-based or functional assay.

Assay [4] deals with T4, mouse NMUR1-CTG (mouse, UniProt O55040 1-428).
T4 sequence (looked up): T3 sequence (looked up)
As to the kind of experiment: cell-based or functional assay.

Assay [5] has as its target T5, mouse NMUR2 (mouse, UniProt Q8BZ39 1-395). The experiment in a line: cell-based or functional assay.
Assay [6] concerns the target T6, rat NMUR1-ATG (rat, UniProt Q9JJI5 1-425).
T6 sequence (looked up): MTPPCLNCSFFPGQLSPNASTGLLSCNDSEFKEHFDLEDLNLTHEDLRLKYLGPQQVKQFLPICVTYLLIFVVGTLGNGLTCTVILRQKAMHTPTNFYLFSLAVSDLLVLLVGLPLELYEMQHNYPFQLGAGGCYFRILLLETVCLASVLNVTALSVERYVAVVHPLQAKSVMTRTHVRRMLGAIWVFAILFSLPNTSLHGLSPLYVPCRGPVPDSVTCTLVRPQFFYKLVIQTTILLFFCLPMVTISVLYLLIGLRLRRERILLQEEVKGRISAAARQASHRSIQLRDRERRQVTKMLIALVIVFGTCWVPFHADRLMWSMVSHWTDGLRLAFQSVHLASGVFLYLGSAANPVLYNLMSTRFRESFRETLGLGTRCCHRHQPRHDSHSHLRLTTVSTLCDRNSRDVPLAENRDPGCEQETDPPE
The experiment in a line: cell-based or functional assay.

The target of assay [7] is T7, rat NMUR1-TTG (rat, UniProt Q9JJI5 1-425).
T7 sequence (looked up): T6 sequence (looked up)
The experiment in a line: cell-based or functional assay.

The target of assay [8] is T8, rat NMUR2 (rat, UniProt Q9ESQ4 1-395). As to the kind of experiment: cell-based or functional assay.
T8 sequence (Q9ESQ4 whole entry): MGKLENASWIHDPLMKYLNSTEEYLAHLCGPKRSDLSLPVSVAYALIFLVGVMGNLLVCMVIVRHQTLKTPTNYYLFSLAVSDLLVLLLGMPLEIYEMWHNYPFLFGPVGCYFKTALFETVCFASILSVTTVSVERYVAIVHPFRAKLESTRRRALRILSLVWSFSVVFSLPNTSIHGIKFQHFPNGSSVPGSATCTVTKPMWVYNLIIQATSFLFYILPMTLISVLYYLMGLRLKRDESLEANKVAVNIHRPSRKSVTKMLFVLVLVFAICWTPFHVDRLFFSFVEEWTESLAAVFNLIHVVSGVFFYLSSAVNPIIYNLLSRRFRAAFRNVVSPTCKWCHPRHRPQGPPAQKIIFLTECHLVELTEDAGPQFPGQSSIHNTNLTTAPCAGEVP
Assay [9] has as its target T1, human NMUR1. The experiment in a line: cell-based or functional assay. The source holds these as a separate data set.
In assay [10] the target is T2, human NMUR2. The experiment in a line: cell-based or functional assay. The source holds these as a separate data set.
For assay [11], the target named is T1, human NMUR1. As to the kind of experiment: 125I-hNMU-25 displacement, cell membranes.
The target in assay [12] is T2, human NMUR2. The experiment in a line: 125I-hNMU-25 displacement, cell membranes.
Assay [13] concerns the target T3, mouse NMUR1-ATG. As to the kind of experiment: 125I-hNMU-25 displacement, cell membranes.
The target in assay [14] is T4, mouse NMUR1-CTG. The experiment in a line: 125I-hNMU-25 displacement, cell membranes.
For assay [15], the target named is T5, mouse NMUR2. As to the kind of experiment: 125I-hNMU-25 displacement, cell membranes.
Assay [16] has as its target T6, rat NMUR1-ATG. The experiment in a line: 125I-hNMU-25 displacement, cell membranes.
For assay [17], the target named is T7, rat NMUR1-TTG. The experiment in a line: 125I-hNMU-25 displacement, cell membranes.
Assay [18] deals with T8, rat NMUR2. The experiment in a line: 125I-hNMU-25 displacement, cell membranes.
Assay [19] concerns the target T1, human NMUR1. The experiment in a line: 125I-hNMU-25 displacement, HEK cell membranes. Here is the method: (§1) Confluent cell monolayers expressing NMU receptors (the HEK cells described above) were harvested with phosphate buffered saline, collected by centrifugation, and resuspended in membrane buffer (50 mM TrisCl pH 7.4, 5 mM MgCl₂, 1× Protease Inhibitor Cocktail, 10 μM phosphoramidon). After the cell pellet was homogenized, the solution was centrifuged at 18,000 rpm for 20 minutes at 4° C. The pellet was resuspended in membrane buffer to yield a final concentration of 0.5-5 μg/μL of membrane and stored at −80° C.
(§2) Experiments were performed in assay buffer (25 mM TrisCl, pH 7.4, 10 mM MgCl₂, 2mM EDTA, 1× Protease Inhibitor Cocktail, 100 μg/mL Bacitricin, 10 μM phosphoramidon) in 200 μL volumes in a 96-well format using 2-5 μg of membrane and […] ¹²⁵I-hNMU-25 (about 12,000 cpm/well). For non-specific binding, 1 μM hNMU-25 was added. About 5 μL of peptides were added to measure antagonist activity, and the entire reaction was incubated at room temperature with shaking for 80 minutes. The reaction was terminated by rapid filtration through 0.3% poly-ethylenimine presoaked Millipore 96-well filter plates and washed with ice-cold buffer (5 mM TrisCl pH 7.4, 10 mM MgCl₂, 2.5 mM EDTA, 0.04% Triton X-100). Plates were air-dried overnight at room temperature and recovered radioactivity was determined by standard scintillation counting. IC₅₀ values were determined using GraphPad Prism software.
(§3) Concentration-response curves and radioligand-binding data were fitted using Prism (GraphPad Software). Results are summarized below in Tables 8 and 9.

Assay [20] has as its target T2, human NMUR2. As to the kind of experiment: 125I-hNMU-25 displacement, HEK cell membranes. The procedure:
as §1, §2, §3

In assay [21] the target is T1, human NMUR1. As to the kind of experiment: cell-based or functional assay. The source holds these as a separate data set.
Assay [22] deals with T2, human NMUR2. The experiment in a line: cell-based or functional assay. This is another data set of the same source.
Assay [23] deals with T9, human NMUR1 (human), Q9HB89.
T9 chain: T1 sequence (looked up)
As to the kind of experiment: 125I-hNMU-25 displacement, HEK cell membranes. Particulars: remark: other sources report otherwise.

T5 sequence (Q8BZ39 whole entry): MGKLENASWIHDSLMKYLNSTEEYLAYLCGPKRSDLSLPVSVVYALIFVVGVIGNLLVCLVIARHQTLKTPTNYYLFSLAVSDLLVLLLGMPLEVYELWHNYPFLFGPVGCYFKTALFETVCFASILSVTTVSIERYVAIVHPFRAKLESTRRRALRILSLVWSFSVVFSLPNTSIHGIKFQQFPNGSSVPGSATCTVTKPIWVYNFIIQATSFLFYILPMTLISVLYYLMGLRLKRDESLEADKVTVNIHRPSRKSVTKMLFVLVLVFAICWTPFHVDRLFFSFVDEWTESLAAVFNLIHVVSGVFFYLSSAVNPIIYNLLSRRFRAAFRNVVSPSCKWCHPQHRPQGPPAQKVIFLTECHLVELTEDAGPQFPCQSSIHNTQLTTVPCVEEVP

For the molecule FRVDEEFQSPFASQSRGYF[dL]WRPRN-NH2 (not fully specified) [neuromedin U receptor agonist H], the % activity was 90% in assay [1]; 0% in assay [2]; 90% in assay [3]; 77% in assay [4]; 40% in assay [5]; 95% in assay [6]. For the same molecule, the % activity is 91% in assay [7], 42% in assay [8] and 88% in [9]. Also, the IC50 (nM), functional in assay [1] was 1.25 nM; in assay [2], greater than 1000 nM; in assay [3], 25 nM; in [4], 66 nM; in assay [5] it was greater than 1000 nM; in assay [6], 31.1 nM. The IC50 (nM), functional was 153 nM in assay [7], greater than 1000 nM in assay [8], 19 nM in assay [9] and greater than 1000 nM in assay [10]. Further, the % inhibition of NMU-25 binding in assay [11] is 93%; in assay [12], 7%; in assay [13], 77%; in assay [14], 83%; in [15], 20%; in assay [16], 100%. The % inhibition of NMU-25 binding was determined as 100% in assay [17] and 0% in assay [18]. The IC50 in assay [11] stood at 1.1 nM; in assay [12], 782 nM; in [13], 66 nM; in assay [14] it was 25 nM; in [16], 15.9 nM; in [17], 11 nM. Further, the values for the IC50 in assay [19] and in assay [20] were 1.1 nM and 780 nM, respectively. The % activity (binding) stood at 93% in [19] and 7% in assay [20].
On to FWLFRARN-NH2 [neuromedin U receptor agonist L], for which, in assay [21], the “% activity” value turned out to be 74% and the “EC50” value is greater than 1000 nM. Besides, in [22], the “% activity” value came to 100% and the “EC50” value was 6.2 nM. Moreover, in assay [20], the “% activity (binding)” value worked out at 100% and the IC50 amounted to 37 nM. For the same molecule, in assay [23], the % activity (binding) came out at 0%.
